Results published in patent US20020111475A1 (IMMUNEX, published 2002).

T1: flt3 on murine WWF7 cells
T1 sequence (Q00342 whole entry, looked up): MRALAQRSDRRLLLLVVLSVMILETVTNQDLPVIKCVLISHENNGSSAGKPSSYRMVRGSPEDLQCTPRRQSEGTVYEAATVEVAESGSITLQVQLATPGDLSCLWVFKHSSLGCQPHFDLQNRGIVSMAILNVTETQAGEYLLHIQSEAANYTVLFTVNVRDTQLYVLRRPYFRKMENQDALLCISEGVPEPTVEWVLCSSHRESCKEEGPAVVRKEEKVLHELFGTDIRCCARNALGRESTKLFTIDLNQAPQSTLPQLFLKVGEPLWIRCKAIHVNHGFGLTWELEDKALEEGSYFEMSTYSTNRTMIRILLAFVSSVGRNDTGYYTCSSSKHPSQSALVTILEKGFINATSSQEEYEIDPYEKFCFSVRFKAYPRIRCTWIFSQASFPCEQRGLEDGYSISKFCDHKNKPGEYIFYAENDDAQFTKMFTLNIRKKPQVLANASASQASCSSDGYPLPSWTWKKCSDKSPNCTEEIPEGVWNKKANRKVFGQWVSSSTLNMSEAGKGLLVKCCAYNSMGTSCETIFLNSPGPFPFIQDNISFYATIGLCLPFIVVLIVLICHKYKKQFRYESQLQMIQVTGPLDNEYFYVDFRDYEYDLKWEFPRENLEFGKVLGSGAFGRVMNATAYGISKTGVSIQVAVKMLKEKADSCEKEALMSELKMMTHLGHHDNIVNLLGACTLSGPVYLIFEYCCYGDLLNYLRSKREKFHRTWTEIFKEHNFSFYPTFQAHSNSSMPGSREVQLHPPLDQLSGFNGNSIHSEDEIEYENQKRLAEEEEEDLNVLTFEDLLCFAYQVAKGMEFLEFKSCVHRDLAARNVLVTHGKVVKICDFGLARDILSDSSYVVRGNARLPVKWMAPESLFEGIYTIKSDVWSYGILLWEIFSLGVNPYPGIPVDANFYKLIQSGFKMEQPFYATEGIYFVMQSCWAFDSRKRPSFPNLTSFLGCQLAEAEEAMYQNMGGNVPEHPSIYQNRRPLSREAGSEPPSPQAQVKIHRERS

B1: flt3-L mutant F15L (ligand)
chain: LSGTQDCSFQHSPISSDLAVKIRELSDYLLQDYPVTVASNLQDEELCGGLWRLVLAQRWMERLKTVAGSKMQGLLERVNTEIHFVTKCAFQPPPSCLRFVQTNISRLLQETSEQLVALKPWITRQNFARCLELQCQPDSSTLPPPWSPRPLEATAPTAPQPPLLLLLLLPVGLLLLAAAWCLHWQRTRRRTPRPGEQVPPVPSPQDLLLVEH
B2: flt3-L mutant F124S (ligand)
chain: LSGTQDCSFQHSPISSDFAVKIRELSDYLLQDYPVTVASNLQDEELCGGLWRLVLAQRWMERLKTVAGSKMQGLLERVNTEIHFVTKCAFQPPPSCLRFVQTNISRLLQETSEQLVALKPWITRQNSARCLELQCQPDSSTLPPPWSPRPLEATAPTAPQPPLLLLLLLPVGLLLLAAAWCLHWQRTRRRTPRPGEQVPPVPSPQDLLLVEH
B3: flt3-L mutant V75A (ligand)
chain: LSGTQDCSFQHSPISSDFAVKIRELSDYLLQDYPVTVASNLQDEELCGGLWRLVLAQRWMERLKTVAGSKMQGLLERANTEIHFVTKCAFQPPPSCLRFVQTNISRLLQETSEQLVALKPWITRQNFARCLELQCQPDSSTLPPPWSPRPLEATAPTAPQPPLLLLLLLPVGLLLLAAAWCLHWQRTRRRTPRPGEQVPPVPSPQDLLLVEH
B4: flt3-L mutant R55C (ligand)
chain: LSGTQDCSFQHSPISSDFAVKIRELSDYLLQDYPVTVASNLQDEELCGGLWRLVLAQCWMERLKTVAGSKMQGLLERVNTEIHFVTKCAFQPPPSCLRFVQTNISRLLQETSEQLVALKPWITRQNFARCLELQCQPDSSTLPPPWSPRPLEATAPTAPQPPLLLLLLLPVGLLLLAAAWCLHWQRTRRRTPRPGEQVPPVPSPQDLLLVEH
B5: flt3-L mutant D3G (ligand)
chain: LSGTQGCSFQHSPISSDFAVKIRELSDYLLQDYPVTVASNLQDEELCGGLWRLVLAQRWMERLKTVAGSKMQGLLERVNTEIHFVTKCAFQPPPSCLRFVQTNISRLLQETSEQLVALKPWITRQNFARCLELQCQPDSSTLPPPWSPRPLEATAPTAPQPPLLLLLLLPVGLLLLAAAWCLHWQRTRRRTPRPGEQVPPVPSPQDLLLVEH
B6: flt3-L mutant R55L (ligand)
chain: LSGTQDCSFQHSPISSDFAVKIRELSDYLLQDYPVTVASNLQDEELCGGLWRLVLAQLWMERLKTVAGSKMQGLLERVNTEIHFVTKCAFQPPPSCLRFVQTNISRLLQETSEQLVALKPWITRQNFARCLELQCQPDSSTLPPPWSPRPLEATAPTAPQPPLLLLLLLPVGLLLLAAAWCLHWQRTRRRTPRPGEQVPPVPSPQDLLLVEH
B7: flt3-L mutant V113E (ligand)
chain: LSGTQDCSFQHSPISSDFAVKIRELSDYLLQDYPVTVASNLQDEELCGGLWRLVLAQRWMERLKTVAGSKMQGLLERVNTEIHFVTKCAFQPPPSCLRFVQTNISRLLQETSEQLEALKPWITRQNFARCLELQCQPDSSTLPPPWSPRPLEATAPTAPQPPLLLLLLLPVGLLLLAAAWCLHWQRTRRRTPRPGEQVPPVPSPQDLLLVEH
B8: flt3-L mutant P10S (ligand)
chain: LSGTQDCSFQHSSISSDFAVKIRELSDYLLQDYPVTVASNLQDEELCGGLWRLVLAQRWMERLKTVAGSKMQGLLERVNTEIHFVTKCAFQPPPSCLRFVQTNISRLLQETSEQLVALKPWITRQNFARCLELQCQPDSSTLPPPWSPRPLEATAPTAPQPPLLLLLLLPVGLLLLAAAWCLHWQRTRRRTPRPGEQVPPVPSPQDLLLVEH
B9: flt3-L mutant F15Y (ligand)
chain: LSGTQDCSFQHSPISSDYAVKIRELSDYLLQDYPVTVASNLQDEELCGGLWRLVLAQRWMERLKTVAGSKMQGLLERVNTEIHFVTKCAFQPPPSCLRFVQTNISRLLQETSEQLVALKPWITRQNFARCLELQCQPDSSTLPPPWSPRPLEATAPTAPQPPLLLLLLLPVGLLLLAAAWCLHWQRTRRRTPRPGEQVPPVPSPQDLLLVEH
B10: flt3-L mutant R95C (ligand)
chain: LSGTQDCSFQHSPISSDFAVKIRELSDYLLQDYPVTVASNLQDEELCGGLWRLVLAQRWMERLKTVAGSKMQGLLERVNTEIHFVTKCAFQPPPSCLCFVQTNISRLLQETSEQLVALKPWITRQNFARCLELQCQPDSSTLPPPWSPRPLEATAPTAPQPPLLLLLLLPVGLLLLAAAWCLHWQRTRRRTPRPGEQVPPVPSPQDLLLVEH
B11: flt3-L mutant F124L (ligand)
chain: LSGTQDCSFQHSPISSDFAVKIRELSDYLLQDYPVTVASNLQDEELCGGLWRLVLAQRWMERLKTVAGSKMQGLLERVNTEIHFVTKCAFQPPPSCLRFVQTNISRLLQETSEQLVALKPWITRQNLARCLELQCQPDSSTLPPPWSPRPLEATAPTAPQPPLLLLLLLPVGLLLLAAAWCLHWQRTRRRTPRPGEQVPPVPSPQDLLLVEH
B12: flt3-L mutant F87L (ligand)
chain: LSGTQDCSFQHSPISSDFAVKIRELSDYLLQDYPVTVASNLQDEELCGGLWRLVLAQRWMERLKTVAGSKMQGLLERVNTEIHFVTKCALQPPPSCLRFVQTNISRLLQETSEQLVALKPWITRQNFARCLELQCQPDSSTLPPPWSPRPLEATAPTAPQPPLLLLLLLPVGLLLLAAAWCLHWQRTRRRTPRPGEQVPPVPSPQDLLLVEH
B13: flt3-L mutant S9G (ligand)
chain: LSGTQDCSFQHGPISSDFAVKIRELSDYLLQDYPVTVASNLQDEELCGGLWRLVLAQRWMERLKTVAGSKMQGLLERVNTEIHFVTKCAFQPPPSCLRFVQTNISRLLQETSEQLVALKPWITRQNFARCLELQCQPDSSTLPPPWSPRPLEATAPTAPQPPLLLLLLLPVGLLLLAAAWCLHWQRTRRRTPRPGEQVPPVPSPQDLLLVEH
B14: flt3-L mutant A64T (ligand)
chain: LSGTQDCSFQHSPISSDFAVKIRELSDYLLQDYPVTVASNLQDEELCGGLWRLVLAQRWMERLKTVTGSKMQGLLERVNTEIHFVTKCAFQPPPSCLRFVQTNISRLLQETSEQLVALKPWITRQNFARCLELQCQPDSSTLPPPWSPRPLEATAPTAPQPPLLLLLLLPVGLLLLAAAWCLHWQRTRRRTPRPGEQVPPVPSPQDLLLVEH
B15: flt3-L mutant F81L (ligand)
chain: LSGTQDCSFQHSPISSDFAVKIRELSDYLLQDYPVTVASNLQDEELCGGLWRLVLAQRWMERLKTVAGSKMQGLLERVNTEIHLVTKCAFQPPPSCLRFVQTNISRLLQETSEQLVALKPWITRQNFARCLELQCQPDSSTLPPPWSPRPLEATAPTAPQPPLLLLLLLPVGLLLLAAAWCLHWQRTRRRTPRPGEQVPPVPSPQDLLLVEH
B16: flt3-L mutant S13P (ligand)
chain: LSGTQDCSFQHSPISPDFAVKIRELSDYLLQDYPVTVASNLQDEELCGGLWRLVLAQRWMERLKTVAGSKMQGLLERVNTEIHFVTKCAFQPPPSCLRFVQTNISRLLQETSEQLVALKPWITRQNFARCLELQCQPDSSTLPPPWSPRPLEATAPTAPQPPLLLLLLLPVGLLLLAAAWCLHWQRTRRRTPRPGEQVPPVPSPQDLLLVEH
B17: flt3-L mutant P90S (ligand)
chain: LSGTQDCSFQHSPISSDFAVKIRELSDYLLQDYPVTVASNLQDEELCGGLWRLVLAQRWMERLKTVAGSKMQGLLERVNTEIHFVTKCAFQPSPSCLRFVQTNISRLLQETSEQLVALKPWITRQNFARCLELQCQPDSSTLPPPWSPRPLEATAPTAPQPPLLLLLLLPVGLLLLAAAWCLHWQRTRRRTPRPGEQVPPVPSPQDLLLVEH
B18: flt3-L mutant R20C (ligand)
chain: LSGTQDCSFQHSPISSDFAVKICELSDYLLQDYPVTVASNLQDEELCGGLWRLVLAQRWMERLKTVAGSKMQGLLERVNTEIHFVTKCAFQPPPSCLRFVQTNISRLLQETSEQLVALKPWITRQNFARCLELQCQPDSSTLPPPWSPRPLEATAPTAPQPPLLLLLLLPVGLLLLAAAWCLHWQRTRRRTPRPGEQVPPVPSPQDLLLVEH

What follows are binders tested against T1, flt3 on murine WWF7 cells (assay: cell-based or functional assay).

B1 and B2 are the same in “Sp.Ac. MUT / Sp.Ac. WT (WWF7 cell proliferation units/ml per flt3-L ng/ml by ELISA, yeast supernatant)” value: 0 ratio to wild type for the first, 0 ratio to wild type for the second.

Compared with B3, B4 is lower in “Sp.Ac. MUT / Sp.Ac. WT (WWF7 cell proliferation units/ml per flt3-L ng/ml by ELISA, yeast supernatant)” value: 0.18 ratio to wild type for the first, 0.05 ratio to wild type for the second.

First: B5
Second: B6
The “Sp.Ac. MUT / Sp.Ac. WT (WWF7 cell proliferation units/ml per flt3-L ng/ml by ELISA, yeast supernatant)” value of the first is higher: 0.81 ratio to wild type for the first, 0.29 ratio to wild type for the second.

First: B7
Second: B8
The “Sp.Ac. MUT / Sp.Ac. WT (WWF7 cell proliferation units/ml per flt3-L ng/ml by ELISA, yeast supernatant)” value of the first is higher: 0.8 ratio to wild type for the first, 0 ratio to wild type for the second.

First: B9
Second: B10
The “Sp.Ac. MUT / Sp.Ac. WT (WWF7 cell proliferation units/ml per flt3-L ng/ml by ELISA, yeast supernatant)” value of the first is lower: 0.19 ratio to wild type for the first, 0.26 ratio to wild type for the second.

First: B11
Second: B12
The “Sp.Ac. MUT / Sp.Ac. WT (WWF7 cell proliferation units/ml per flt3-L ng/ml by ELISA, yeast supernatant)” value of the first is higher: 0.22 ratio to wild type for the first, 0.01 ratio to wild type for the second.

Compared with B13, B14 is lower in “Sp.Ac. MUT / Sp.Ac. WT (WWF7 cell proliferation units/ml per flt3-L ng/ml by ELISA, yeast supernatant)” value: 0.13 ratio to wild type for the first, 0.09 ratio to wild type for the second.

First: B15
Second: B16
The “Sp.Ac. MUT / Sp.Ac. WT (WWF7 cell proliferation units/ml per flt3-L ng/ml by ELISA, yeast supernatant)” value of the first is higher: 0.06 ratio to wild type for the first, 0 ratio to wild type for the second.

Compared with B17, B18 is higher in “Sp.Ac. MUT / Sp.Ac. WT (WWF7 cell proliferation units/ml per flt3-L ng/ml by ELISA, yeast supernatant)” value: 0.09 ratio to wild type for the first, 0.11 ratio to wild type for the second.
